Experiment [1] has as its target purified human Glu-plasminogen (American Diagnostica, 98% Glu-type plasminogen) (human) (UniProt P00747).
Experiment [2] has the same target. This is another data set of the same source.
Experiment [3] addresses native, full-length mature SK protein derived from Streptococcus equisimilus (nSK) (Streptococcus equisimilus).
For experiment [4], the target named is rSK (fusion protein with maltose binding protein linked to the amino terminus of nSK) (Streptococcus equisimilis (SK part)).

The values below come from patent US5854049.

Consider “native, full-length mature SK protein derived from Streptococcus equisimilus (nSK)”, for which, in experiment [1], the lag phase of plasminogen activation (S2251 hydrolysis, absorption at 405 nm, 21° C.) was less than 50 s. For the same substance, in experiment [2], the amidolytic kinetic parameters of the SK-PAC on S2251: Km (µM), Kcat (S^-1), kcat/Km (µM^-1 S^-1) worked out at 0.226 µM^-1 S^-1.

Regarding plasmin (from UniProt P00747) (enzyme), the cleavage of SK by plasmin after mixing with excess Glu-plasminogen (immunoblot with monoclonal anti-SK antibodies) was less than 30 s in experiment [3] and 1 min in experiment [4].
